From patent publication US20220356229A1 (published 2022)
Residue numbers refer to the chain shown, from its start.

B1: antibody 423 (antibody, V domains shown)
VH: EVQLVESGGGLIQPGGSLRISCAASGFTVRNNHMSWVRQAPGKGLEWVSVFYRGGTTYYADSVKGRFTISRDDSKNTVDLQMNSLRGEDTAVYYCARGLSVAASGYFDCWGQGTLVTVSS
VL: DIQMTQSPSSVSASVGDTVTITCRANQGISSWLAWYQQVPGKAPELLIYATSTLQSGVPSRFSGSGSGTDFTLTISSLQPEDFATYYCQQANSFPFTFGPGTKVDIK
B2: antibody 421 (antibody, V domains shown)
VH: QVQLVESGGGVVQPGRSLRLSCAASGFTFSTYAMHWVRQAPGKGLEWVAVISYDGSNKYYADSVKGRFTISRDNSKNTLYLQMNSLRAEDTAVYYCARGYGSGSYYPLYLYWGQGTLVTVSS
VL: not shown
B3: antibody 422 (antibody, V domains shown)
VH: QVQLVQSGSELKKPGASVKVSCKASGYTFTSYAMNWVRQAPGQGLEWMGWINTNTGNPTYAQGFTGRFVFSLDTSVSTTYLQISSLKAEDTAVYYCARVIGVVTYYYYGMDVWGQGTTVTVSS
VL: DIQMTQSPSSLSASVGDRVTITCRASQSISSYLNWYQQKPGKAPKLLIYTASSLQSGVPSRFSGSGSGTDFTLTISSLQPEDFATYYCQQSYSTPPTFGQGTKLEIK
B4: antibody 431 (antibody, V domains shown)
VH: QVQLVESGGGVVQPGRSLRLSCAASGFTFSSYAMHWVRQAPGKGLEWLAVISYDGSNKYYADSVKGRFTISRDNSKNTLYLQMNSLRAEDTAVYYCARSFRGGYYYGMDVWGQGTTVTVSS
VL: DIQLTQSPSFLSASVGDRVTITCRASQGISSYLAWYQQKPGKAPKLLIYAASTLQSGVPSRFSGSGSGTEFTLTISSLQPEDFATYYCQQLNSYPLFTFGPGTKVDIK
B5: antibody 566 (antibody, V domains shown)
VH: QVQLVQSGAEVKKPGASVKVSCKASGYTFTSYAMHWVRQAPGQRLEWMGWINAGNGNTKYSQKFQGRVTITRDTSASTAYMELSSLRSEDTAVYYCARDLGVAVTLHPADFDYWGQGTLVTVSS
VL: QSVLTQPPSVSGAPGQRVTISCTGSSSNIGAGYDVHWYQQLPGTAPKLLIYDNSNRPSGVPDRFSGSKSGTSASLAITGLQAEDEADYYCQSYDSSLSAVVFGGGTKLTVL
B6: antibody 556 (antibody, V domains shown)
VH: QVQLVESGGGVVQPGRSLRLSCAASGFTFSSYAMHWVRQAPGKGLEWVAVISYDGSDKYYADSVKGRVTISRDNSKNTLYLQMNSLRVEDTAVFYCAKDDCSGGVCFPDYWGQGTLVTVSS
VL: QSALTQPASVSGSPGQSITISCTGTSSDVGGYNYVSWYQQHPGKAPKLMIYEVSIRPSGVSNRFSGSKSGNTASLTISGLQAEDEAAYYCSSYTSSSTLVFGGGTKLTVL
B7: antibody 564 (antibody, V domains shown)
VH: QVHLVESGGGVVQPGKSLRLSCAASGFIFSSFGMHWVRQPPGKGLEWLAVVSYDGSVTKYSDSFEGRFTISRDNSKNTLYLQMDSLRPEDTAVYYCAKGQGTNLLHYWGQGILVTVSS
VL: DVVLSQSPLSLPVTLGQPASISCRSSESLVYTDGDTYLHWFHQRPGQSPRRLIFKVSHRESGVPDRISGSGSGTDFTLKISRVEAEDVGVYYCMQGTHWPFTFGPGTKVDIK
B8: antibody 571 (antibody, V domains shown)
VH: EVQLVESGGGLVQPGGSLRLSCAASGFTFSTYWMTWVRQAPGKGLEWVANIKHDGSGKYHVDSVKGRFTISRDNAKNSLYLQMNSLRAEDTAVYYCTRDEGGWYDYWGQGTLVTVSS
VL: QSALTQPASVSGSPGQSITISCTGTSSDVGSYNPVSWYQQHPGKAPKVMIYEGSKRPSGVSNRFSGSKSGNTASLTISGLQAEDEADYYCCSYARSSTFVVFGGGTKLTVL
B9: antibody 576 (antibody, V domains shown)
VH: B4 VH with L48V, R98K, S99A, F100G, R101G, G103S, Y106R, M108F, V110Y, T116L
VL: DIQLTQSPSFLSASVGDRVTITCRASQGISSYLAWYQQKPGKAPKLLIYAASTLQSGVPSRFSGSGSGTEFTLTISSLQPEDFATYYCQQLNSYPTFGPGTKVDIK
B10: antibody 569 (antibody, V domains shown)
VH: B4 VH with L48V, S99A, F100S, R101S, Y105Q, Y106G, G107P, M108F, V110P, T116L
VL: EIVLTQSPATLSLSPGERATLSCRASQSVSSYLAWYQQKPGQAPRLLIYDASNRATGIPARFSGSGSGTDFTLTISSLEPEDFAVYYCQQRSSPFGPGTKVDIK
B11: antibody 560 (antibody, V domains shown)
VH: EVQLVESGGGLVQPGGSLRLSCAASGFTISSNYMSWVRQAPGKGLEWVSVIYSGGSTYYADSVKGRFTISRDNSKNTLYLQMNSLRAEDTAVYYCAREEGEWEKDYYGMDVWGQGTTVTVSS
VL: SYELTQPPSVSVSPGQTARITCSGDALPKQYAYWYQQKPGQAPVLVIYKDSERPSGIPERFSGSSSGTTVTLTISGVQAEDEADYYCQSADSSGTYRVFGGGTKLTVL
B12: antibody 563 (antibody, V domains shown)
VH: QVQLVESGGGVVQPGRSLRLSCAASGFTFSSYAMHWVRQAPGKGLEWVAVISDDGSNKYYADSVKGRFTISRDNSKNTLYLQMNSLRAEDTAVYYCARDIVATIRRLFDYWGQGTLVTVSS
VL: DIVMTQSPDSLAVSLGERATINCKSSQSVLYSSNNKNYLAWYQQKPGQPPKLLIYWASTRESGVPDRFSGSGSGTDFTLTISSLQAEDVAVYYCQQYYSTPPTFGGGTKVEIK
B13: anti-SARS-CoV-2 antibody 1404 (antibody, V domains shown)
VH: QITLKESGPTLVKPTQTLTLTCTFSGFSLSISGVGVGWLRQPPGKALEWLALIYWDDDKRYSPSLKSRLTISKDTSKNQVVLKMTNIDPVDTATYYCAHHSISTIFDHWGQGTLVTVSS
VL: QSALTQPASVSGSPGQSITISCTATSSDVGDYNYVSWYQQHPGKAPKLMIFEVSDRPSGISNRFSGSKSGNTASLTISGLQAEDEADYYCSSYTTSSAVFGGGTKLTVLG
B14: anti-SARS-CoV-2 antibody 1495 (antibody, V domains shown)
VH: QVQLVESGGGVVQPGRSLRLSCTASGFTFSSYAMHWVRQAPGKGLEWVAVISYDGNNKYYGDSVKGRFTISRDNSKNTLYLQMNSLRAEDTAVYYCAKGADTPHYSGYHFLSVGYYFYGMDVWGQGTTVTVSS
VL: DIQMTQSPSSLSASVGDRVTITCRASQSISYYLNWYQQKPGKAPQLLIYAASSLQSGVPSRFSGSRSGTDFTLTISSLQPEDFATYYCQQSYSTPFTFGPGTKVDIKR
B15: anti-SARS-CoV-2 antibody 1444 (antibody, V domains shown)
VH: QVQLVQSGAEVKKPGASVKVSCKASGYTFTAYYMHWVRQAPGQGLEWMGWINPNSDDTNYAQKFQGRVTMTRDTSISTAYMELSRLRSDDTAVYYCAREEGVFTIGDRYFDLWGRGTLVSVSS
VL: QTVVTQEPSFSVSPGGTVTLTCGLSSGSVSTSYYPSWYQQTPGQAPRTLIYNTNTRSSGVPDRFSGSILGNKAALTITGAQADDESDYYCVLYMGSGIWVFGGGTKLTVLG
B16: anti-SARS-CoV-2 antibody 1538 (antibody, V domains shown)
VH: EVQLLESGGGLVQPGGSLRLSCAASGFTFSSYAMSWVRQAPGKGLEWVSGISDSGGSTYYADYVKGRFTISRDNSKDTLYLQMNSLRAEDTAVYYCAKDRGNEYALTHYYYYAMDVWGQGTTVTVSS
VL: DIQMTQSPSSLSASVGDRVTITCRASQSISSYLNWYQQKPGKAPKLLIYAAYSLQSGVPSRFSGGGSGTDFTLTISSLQPEDFATYFCQQSYSTPITFGQGTRLEIKR

biological target: SARS-CoV-2 full length Spike protein, wild type (SARS-CoV-2, UniProt P0DTC2 14-1208); assay: not given

Row | Binder | median fluorescence, fold over isotype [fold over isotype control]
1 | B1 | 1190
2 | B2 | 505
3 | B3 | 1250
4 | B4 | 715

biological target: SARS-CoV-2 full length Spike protein, wild type (SARS-CoV-2, UniProt P0DTC2 14-1208); assay: not given; remark: another data set of the same source

Row | Binder | median fluorescence intensity, fold over isotype control [fold over isotype]
5 | B5 | 613
6 | B6 | 625
7 | B7 | 523
8 | B8 | 338
9 | B9 | 566
10 | B10 | 478
11 | B11 | 991
12 | B12 | 513

biological target: SARS-CoV-2 full length Spike protein, wild type, expressed on CHO cells (SARS-CoV-2, UniProt P0DTC2 14-1273); assay: not given

Row | Binder | median fluorescence intensity, fold over isotype control [fold over isotype]
13 | B13 | 71.2
14 | B14 | 57.3
15 | B15 | 48.7
16 | B16 | 67.5

biological target: T1, SARS-CoV full length Spike protein, wild type, expressed on CHO cells (SARS-CoV, UniProt P59594 14-1255); assay: not given

Row | Binder | median fluorescence intensity, fold over isotype control [fold over isotype]
17 | B13 | 0.86
18 | B14 | 0.72
19 | B15 | 0.77
20 | B16 | 0.75

biological target: T1, SARS-CoV full length Spike protein, …; assay: flow cytometry, live cell assay on transfected CHO cells

Row | Binder | binding result
21 | B13 | no binding
22 | B14 | no binding
23 | B15 | no binding
24 | B16 | no binding
